Results as given in the supplement of paper PMC9170038.

System: MS2 coat protein
Assay: apparent KD of MS2 coat protein; designed switch direction (-1 OFF switch, 1 ON switch): -1; higher = weaker reporter binding
In short: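 The buffer was Tris-HCl pH 7.5 with KCl, MgCl2, BSA, DTT, tRNA and Tween-20. In it, SNAP-549-labelled MS2 coat protein was titrated in doubling steps from 0.7 or 1.5 nM to 3 µM over chip-bound RNA switches transcribed by stalled E. coli RNA polymerase on Illumina chips. Apparent KD is the per-design median over clusters of curve fits to normalised fluorescence.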

[1] = input ligand: microRNA oligo, concentration not stated
[2] = Eterna round: R95, input ligand: FMN 200 uM
[3] = Eterna round: R95, input ligand: microRNA oligo, concentration not stated
[4] = Eterna round: R95, input ligand: none

UUAUUUAGGUAGGAUAUCGAUACCAAUUACUAUCGAGAAGGGUCUACAUGAGGAUCACCCAUGUUAGCAUGUUU [LRO-Excl6-12-Rocketman] (Eterna round: R97, puzzle: Exclusion 6)
apparent KD of MS2 coat protein (input ligand: FMN 200 uM): 26.4 nM
apparent KD of MS2 coat protein (input ligand: none): 24.9 nM

GCUGGUCGAGGAUAUACAUGAGGAUCACCCAUGUGGUUACGUGACGAUAGUCACGAAUGUAGAAGGCGACCAGC [E3/4-A1] (Eterna round: R97, puzzle: Exclusion 3)
apparent KD of MS2 coat protein (input ligand: FMN 200 uM): 2200 nM
apparent KD of MS2 coat protein (input ligand: none): 295 nM

GAUAGUGGAGGAUAUACAUGAGGAUCACCCAUGUGAAGUUGCGUAAGUGACCCUUCCUGUAGAAGGCCAAGCAA [Eternabot (Original) Solution 31] (Eterna round: R97, puzzle: Exclusion 3)
apparent KD of MS2 coat protein (input ligand: FMN 200 uM): 256 nM
apparent KD of MS2 coat protein (input ligand: none): 31.9 nM

UCGACGUCGUCAGGAUAUAGUUUUAAUGUCAUGCUUUUGUUUUUACAUGAGGAUCACCCAUGUCGCUAGAAGGGACUAAAGAUU [JR_ExcNG2_Sub013] (Eterna round: R96, puzzle: Exclusion NG 2)
apparent KD of MS2 coat protein (input ligand: FMN 200 uM): 36.7 nM
apparent KD of MS2 coat protein [1]: 34.1 nM
apparent KD of MS2 coat protein (input ligand: none): 41.7 nM

CCCACAAGCUUUUUGCUCGACAUGAGGAUCACCCAUGUUGAAUGGGUUAGAUGUGUGUGAAACACACACAUCUACCU [-32.5, -55.3 kcal, A 27%] (Eterna round: R97, puzzle: Sensor, turn-off variant 1)
apparent KD of MS2 coat protein (input ligand: FMN 200 uM): 20.3 nM
apparent KD of MS2 coat protein (input ligand: none): 18.6 nM

GACUAGGGAGGAUAUAUUUACAGUGUACCUCGGGUGAUCGCACUUGAGGAUCACCCAAGUAGAAGGCUCGAGGG [EX2 #27] (Eterna round: R97, puzzle: Exclusion 2)
apparent KD of MS2 coat protein (input ligand: FMN 200 uM): 30 nM
apparent KD of MS2 coat protein (input ligand: none): 35.9 nM

UGGGUACUCCAUAGAAGAGACAUGAGGAUCACCCAUGUAGGGCAAGCUUUUUGCUCGUCUUAGGAUGAGGGAUAGGA [JR_SV3TOV1_Sub014] (puzzle: Sensor v3, turn-off variant 1)
apparent KD of MS2 coat protein [2]: 171 nM
apparent KD of MS2 coat protein [3]: 79.1 nM
apparent KD of MS2 coat protein [4]: 188 nM

GUUUAGUGAGGAUAUGUGGCUUCGAUCGUGAGAUCGAGGCUACAGAAGGCACAUGAGGAUCACCCAUGUUCCUA [salish99_ex4_r4_107] (Eterna round: R97, puzzle: Exclusion 4)
apparent KD of MS2 coat protein (input ligand: FMN 200 uM): 87.7 nM
apparent KD of MS2 coat protein (input ligand: none): 16.5 nM

AUAUAGAUAGUCAGGAUAUUCUAGUGAUAACAGUAGGAGAAGGGACAUGAGGAUCACCCAUGUAGAUAGUGCAC [Brourd's EX4 #15] (Eterna round: R97, puzzle: Brourd's mod of Exclusion 4)
apparent KD of MS2 coat protein (input ligand: FMN 200 uM): 42.9 nM
apparent KD of MS2 coat protein (input ligand: none): 27 nM

UUCGUGCUGCUUUGCUGUACGAGUACAUGAGGAUCACCCAUGUAGGAUAUGGACAUGAGGAUCACCCAGAAGGAUAUGUGUUGC [salish99_ExNG3_r04_508] (Eterna round: R96, puzzle: Exclusion NG 3)
apparent KD of MS2 coat protein [1]: 87.5 nM

AGAUGUAGAUACCGAUCCUACAUGAGGAUCACCCAUGUAGCUAGACGUGCGGGCGGCGCUCGUCAGACUACCAGUAG [salish99_TOv1_r3_094] (puzzle: Sensor v3, turn-off variant 1)
apparent KD of MS2 coat protein [2]: 271 nM
apparent KD of MS2 coat protein [3]: 214 nM
apparent KD of MS2 coat protein [4]: 371 nM

UCAUGGAAGCAGGAUAUGCUUGUUUAAUUGUUUGCAGAAGGGCUAACAUGAGGAUCACCCAUGUGAGAGGUCUA [JR_E6_Sub064] (puzzle: Exclusion 6)
apparent KD of MS2 coat protein [2]: 20.5 nM
apparent KD of MS2 coat protein [3]: 33.8 nM
apparent KD of MS2 coat protein [4]: 36.7 nM

GGUUGGCGAGGAUAUACAUGAGGAUCACCCAUGUGAUCCUAAGGCUGAUCAAGCCUAUGUAGAAGGCGCAAAUC [salish99_ex3_r4_009] (Eterna round: R97, puzzle: Exclusion 3)
apparent KD of MS2 coat protein (input ligand: FMN 200 uM): 49.7 nM
apparent KD of MS2 coat protein (input ligand: none): 260 nM

UCUUAUUGAGGAUAUACAUUAAAAUACAUGAGGAUCACCCAUGUUCUUCAAUGUAUAUAUGUAGAAGGCAGAAUAU [Mat - Exclusion 5 - JL Mod - D27] (Eterna round: R97, puzzle: Exclusion 5)
apparent KD of MS2 coat protein (input ligand: FMN 200 uM): 61.2 nM
apparent KD of MS2 coat protein (input ligand: none): 28.8 nM

GUAUGUGACGAGGAUAUCACCUUGUUACUUAGAUGAGAAGGCGUCACAUGAGGAUCACCCAUGUGAUGAAAAGA [EX6 A.14] (Eterna round: R97, puzzle: Exclusion 6)
apparent KD of MS2 coat protein (input ligand: FMN 200 uM): 27.4 nM
apparent KD of MS2 coat protein (input ligand: none): 21.4 nM

GAUUGACAUGAGGAUCACCCAUGUGAGGAUAUCGGCCGGACCUUGUUAGCUUCCACCGCGAGAAGGCACAUAGG [Exclusion 1 V31] (puzzle: Exclusion 1)
apparent KD of MS2 coat protein [3]: 25.3 nM

AUCCAACAUGAGGAUCACCCAUGUCAGGAUAUACCCAUCUCCACCUAAUCGGUGGUGGGUAGAAGGGAUAUGUC [EX1 B.10] (Eterna round: R97, puzzle: Exclusion 1)
apparent KD of MS2 coat protein (input ligand: FMN 200 uM): 22.6 nM
apparent KD of MS2 coat protein (input ligand: none): 18.9 nM

UAGAAUCGAGGAUAUACAUGAGGAUCACCCAUGUGUUGCCGCAUGAUGUGAUCGUCAGGUAGAAGGCGAUUAUA [Exclusion 3 - Mod of Jieux's Gilly Gone Silly 23 v.7] (puzzle: Exclusion 3)
apparent KD of MS2 coat protein [3]: 35.4 nM

UGCAGACGAGGAUAUAGAUUUAAGUACAUGAGGAUCACCCAUGUACACAUGUAUUUAGAUUUAGAAGGCGUCUGCU [E5/17-A4] (Eterna round: R97, puzzle: Exclusion 5)
apparent KD of MS2 coat protein (input ligand: FMN 200 uM): 987 nM
apparent KD of MS2 coat protein (input ligand: none): 1210 nM

GCAGUGCGAGGAUAUACAUGAGGAUCACCCAUGUGAGAAUAAGAAGUGAGGAAGAAAAGUAGAAGGCGCGUUGG [Mat - Exclusion 3 - Mod of Salish D66] (puzzle: Exclusion 3)
apparent KD of MS2 coat protein [2]: 77.5 nM
apparent KD of MS2 coat protein [3]: 36.4 nM
apparent KD of MS2 coat protein [4]: 59.6 nM

UCAAUUUUGCGAGGAUAUCGACCAUUCCUCUUUACAUGAGGAUCACCCAUGUACUUAUUCUACAACGAGAAGGCGCUCAUAGUU [JR_ExcNG2_Sub064] (Eterna round: R96, puzzle: Exclusion NG 2)
apparent KD of MS2 coat protein [1]: 30 nM

ACGUUUUUUGAGGAUAUGCGAUAUUUUUUUAUCGUAGAAGGCGAUACAUGAGGAUCACCCAUGUUUAUGGGCAU [LRO-Ex6-19] (puzzle: Exclusion 6)
apparent KD of MS2 coat protein [3]: 143 nM

AAAAAGGUAGGAUAUACGAAAAAAAAGGGUAGAAAAAAAACACAUGAGGAUCACCCAUGUAGAAGGACCAAAAG [salish99_ex2_r3_045] (puzzle: Exclusion 2)
apparent KD of MS2 coat protein [2]: 58.7 nM
apparent KD of MS2 coat protein [3]: 32 nM
apparent KD of MS2 coat protein [4]: 28.4 nM

AGUAGAUCUACGCUUGCGUGGAUCUGCGAGGCAGGUGUAACAUGAGGAUCACCCAUGUCCUCAUUUGUUCGUCUUAU [JL turnoff v2 99.19] (puzzle: Sensor v3, turn-off variant 2)
apparent KD of MS2 coat protein [2]: 379 nM
apparent KD of MS2 coat protein [3]: 377 nM
apparent KD of MS2 coat protein [4]: 477 nM

UACACUGCAUGAGGAUCAAACAUGAGGAUCACCCAUGUAUAACAAGCUUUUUGCACGUCUUAUAAUUAUGUAGUGUA [Electric Eye 14 - Jieux - Sensor, turn-off variant 1] (Eterna round: R97, puzzle: Sensor, turn-off variant 1)
apparent KD of MS2 coat protein (input ligand: FMN 200 uM): 15.3 nM
apparent KD of MS2 coat protein (input ligand: none): 16.2 nM

CAGUACCUAGGAUAUACACGGCCACGUGAUACCAAGGAGCAACUUGAGGAUCACCCAAGUAGAAGGAGGUACUG [jl-ex2.4.42 ViennaUCT mod] (Eterna round: R97, puzzle: Exclusion 2)
apparent KD of MS2 coat protein (input ligand: FMN 200 uM): 3200 nM
apparent KD of MS2 coat protein (input ligand: none): 198 nM

GCUUCGGCAGGAUAUACAAUGAAGUUGAGAAAUCGGCUUCGACAUGAGGAUCACCCAUGUAGAAGGGUUGAAGU [-26.3, -24 kcal, A 32% 3, 3 bis] (Eterna round: R97, puzzle: Exclusion 2)
apparent KD of MS2 coat protein (input ligand: FMN 200 uM): 36.3 nM
apparent KD of MS2 coat protein (input ligand: none): 48.6 nM

UUUAAGGGAAUUAAGAUCACAUGAGGAUCACCCAUGUAUAUAUAGGAUAUCAGCUCGUUUAGAGCUGAGAAGGAUAUAUACAUA [ExNG3/6-A2] (Eterna round: R96, puzzle: Exclusion NG 3)
apparent KD of MS2 coat protein (input ligand: FMN 200 uM): 162 nM
apparent KD of MS2 coat protein [1]: 83.8 nM
apparent KD of MS2 coat protein (input ligand: none): 155 nM

CAGUACUGAGGAUAUACAUGAGGAUCACCCAUGUGUUCCAGCGAGGAAACUAGCAAAAGUAGAAGGCAGUACUG [salish99_ex3_r3_077] (puzzle: Exclusion 3)
apparent KD of MS2 coat protein [2]: 199 nM
apparent KD of MS2 coat protein [3]: 18.4 nM
apparent KD of MS2 coat protein [4]: 17.5 nM

GUAUGGAGAGUGAGGAUAUUUCCUGAGUGAUCAGCGAAGAAGGUACAUGAGGAUCACCCAUGUAGGUGGACUAA [Eternabot (L1) Solution 14] (Eterna round: R97, puzzle: Brourd's mod of Exclusion 4)
apparent KD of MS2 coat protein (input ligand: FMN 200 uM): 82.4 nM
apparent KD of MS2 coat protein (input ligand: none): 70.5 nM

CUAGCGAGUGUAGGAUAUCGGACUGUUUCAGUCUGAGAAGGACAUGAGGAUCACCCAUGUAUUGCUACGUGAGUAGCACGCUAG [JL ENG1 3.00] (Eterna round: R96, puzzle: Exclusion NG 1)
apparent KD of MS2 coat protein (input ligand: FMN 200 uM): 32.9 nM
apparent KD of MS2 coat protein [1]: 17.5 nM
apparent KD of MS2 coat protein (input ligand: none): 19 nM

AAAGACAGAGGAUAUGCACGCCGACCCGGGCGGGAAGUCGGACAUGAGGAUCACCCAUGUAGAAGGCUGAGAAA [Exclss2-VII] (puzzle: Exclusion 2)
apparent KD of MS2 coat protein [3]: 10.5 nM

ACAUGAGGAUCACCCAUGUUAUGUUGGGUACUAAAUUAUUCGUAGGAUAUCGUAGCUAGUUUGUGCGAGAAGGACGCAGUUUUU [JR_ExcNG3_Sub060] (Eterna round: R96, puzzle: Exclusion NG 3)
apparent KD of MS2 coat protein [1]: 202 nM

UUGUUCUGAGGAUAUACAUGAGGAUCACCCAUGUGUUUCAGCUAGGAGACUAGCGAAAGUAGAAGGCUGUACUC [salish99_ex3_r4_017] (Eterna round: R97, puzzle: Exclusion 3)
apparent KD of MS2 coat protein (input ligand: FMN 200 uM): 26.9 nM
apparent KD of MS2 coat protein (input ligand: none): 24.9 nM

UUUUAGUCAGGAUAUACAUGAGGAUCACCCAUGUAAAAUUUUAAUUUAAUUUUAAGGUGUAGAAGGGACAACCC [Ex3 #13] (Eterna round: R97, puzzle: Exclusion 3)
apparent KD of MS2 coat protein (input ligand: FMN 200 uM): 26.6 nM
apparent KD of MS2 coat protein (input ligand: none): 32.6 nM
